{"source": "paper PMC8854672", "about": "“Tracing transport of protein aggregates in microgravity versus unit gravity crystallization” (NPJ Microgravity, 2022)", "biological_target": "the molecule itself", "test": "SEC; preparative HiLoad 26/600 Superdex 200 column after glutathione affinity chromatography; tetramer V_elution about 170 mL", "note": "“And” between values parts separate entries of the source, which are not always exact repeats. Equal entries are not always repeated."}
{"protein": "Plasmodium falciparum glutathione-S-transferase (enzyme, UniProt Q8ILQ7 1-211, looked up, glutathione S-transferase of Plasmodium falciparum; recombinant; printed M.W. of the dimer ~56 kDa; Found as dimer and as tetramer; The dimer for crystallization was eluted with and stabilised by 10 mM S-(p-bromobenzyl)-GSH; The tetramer was labelled with Alexa Fluor 488 only after SEC and DLS; also called PfGST) MGDNIVLYYFDARGKAELIRLIFAYLGIEYTDKRFGVNGDAFVEFKNFKKEKDTPFEQVPILQIGDLILAQSQAIVRYLSKKYNICGESELNEFYADMIFCGVQDIHYKFNNTNLFKQNETTFLNEDLPKWSGYFEKLLKKNHTNNNNDKYYFVGNNLTYADLAVFNLYDDIETKYPSSLKNFPLLKAHNEFISNLPNIKNYITNRKESVY", "values": [{"measurement": "stoichiometry N", "result": "2 and 4"}]}
